# Numbering of substitutions follows the chain as printed. Numbers in names are those of the source.
# B1: PI4KB, untagged (residues 423-522 removed) (enzyme, human, UniProt Q9UBF8 1-816, looked up)
# chain: MGDTVVEPAPLKPTSEPTSGPPGNNGGSLLSVITEGVGELSVIDPEVAQKACQEVLEKVKLLHGGVAVSSRGTPLELVNGDGVDSEIRCLDDPPAQIREEEDEMGAAVASGTAKGARRRRQNNSAKQSWLLRLFESKLFDISMAISYLYNSKEPGVQAYIGNRLFCFRNEDVDFYLPQLLNMYIHMDEDVGDAIKPYIVHRCRQSINFSLQCALLLGAYSSDMHISTQRHSRGTKLRKLILSDELKPAHRKRELPSLSPAPDTGLSPSKRTHQRSKSDATASISLSSNLKRTASNPKVENEDEELSSSTESIDNSFSSPVRLAPEREFIKSLMAIGKRLATLPTKEQKTQRLISELSLLNHKLPARVWLPTAGFDHHVVRVPHTQAVVLNSKDKAPYLIYVEVLECENFDTTSVPARIPENRRDPEDPSAVALKEPWQEKVRRIREGSPYGHLPNWRLLSVIVKCGDDLRQELLAFQVLKQLQSIWEQERVPLWIKPYKILVISADSGMIEPVVNAVSIHQVKKQSQLSLLDYFLQEHGSYTTEAFLSAQRNFVQSCAGYCLVCYLLQVKDRHNGNILLDAEGHIIHIDFGFILSSSPRNLGFETSAFKLTTEFVDVMGGLDGDMFNYYKMLMLQGLIAARKHMDKVVQIVEIMQQGSQLPCFHGSSTIRNLKERFHMSMTEEQLQLLVEQMVDGSMRSITTKLYDGFQYLTNGIM
# notes: Phosphatidylinositol 4-kinase beta (PI4KB), human, UniProtKB entry Q9UBF8 isoform 1, with the intrinsically disordered region 423-522 removed; Called untagged in the pull-downs; the AUC mass of about 80 kDa fits the deleted form; also called PI4K IIIβ; untagged full-length PI4KB; source: E. coli BL21 Star, purified (Ni-NTA, TEV, SEC); not shown: His6, N-terminal, cleaved; GB1, N-terminal, cleaved
# B2: N-terminal His6GB1-tagged ACBD3 Q domain (residues 241-308) (domain or fragment, human, UniProt Q9H3P7 241-308, looked up)
# chain: QQKQQIMAALNSQTAVQFQQYAAQQYPGNYEQQQILIRQLQEQHYQQYMQQLYQVQLAQQQAALQKQQ
# notes: ACBD3 Q domain (glutamine rich region), human, UniProtKB Q9H3P7, residues 241-308; also called Q domain of ACBD3; source: E. coli BL21 Star, purified (Ni-NTA, SEC); not shown: His6, N-terminal, kept; GB1, N-terminal, kept
# B3: Acyl-coenzyme A binding domain containing protein 3 (ACBD3), full length, untagged (natural protein, human, UniProt Q9H3P7 1-528, looked up)
# chain: MAAVLNAERLEVSVDGLTLSPDPEERPGAEGAPLLPPPLPPPSPPGSGRGPGASGEQPEPGEAAAGGAAEEARRLEQRWGFGLEELYGLALRFFKEKDGKAFHPTYEEKLKLVALHKQVLMGPYNPDTCPEVGFFDVLGNDRRREWAALGNMSKEDAMVEFVKLLNRCCHLFSTYVASHKIEKEEQEKKRKEEEERRRREEEERERLQKEEEKRRREEEERLRREEEERRRIEEERLRLEQQKQQIMAALNSQTAVQFQQYAAQQYPGNYEQQQILIRQLQEQHYQQYMQQLYQVQLAQQQAALQKQQEVVVAGSSLPTSSKVNATVPSNMMSVNGQAKTHTDSSEKELEPEAAEEALENGPKESLPVIAAPSMWTRPQIKDFKEKIQQDADSVITVGRGEVVTVRVPTHEEGSYLFWEFATDNYDIGFGVYFEWTDSPNTAVSVHVSESSDDDEEEEENIGCEEKAKKNANKPLLDEIVPVYRRDCHEEVYAGSHQYPGRGVYLLKFDNSYSLWRSKSVYYRVYYTR
# notes: ACBD3, human, UniProtKB entry Q9H3P7, full length; Called untagged in the pull-downs; also called GCP60; PAP7; source: E. coli BL21 Star, purified (Ni-NTA, TEV, SEC); not shown: His6, N-terminal, cleaved; GB1, N-terminal, cleaved
# B4: N-terminal His6GB1-tagged PI4KB N-terminal region (residues 1-68) (domain or fragment, human, UniProt Q9UBF8 1-68, looked up)
# chain: MGDTVVEPAPLKPTSEPTSGPPGNNGGSLLSVITEGVGELSVIDPEVAQKACQEVLEKVKLLHGGVAV
# notes: PI4KB N-terminal region preceding the helical domain, human, UniProtKB Q9UBF8 isoform 1, residues 1-68; also called N-terminal region of PI4KB; source: E. coli BL21 Star, purified (Ni-NTA, SEC); not shown: His6, N-terminal, kept; GB1, N-terminal, kept
# B5: ACBD3 Y266A mutant, untagged (natural protein, human, UniProt Q9H3P7 1-528, looked up)
# chain: B3 chain with Y266A
# notes: ACBD3, human, UniProtKB Q9H3P7, point mutant; source: E. coli BL21 Star, purified (Ni-NTA, TEV, SEC); not shown: His6, N-terminal, cleaved; GB1, N-terminal, cleaved
# Assays:
# Conditions in all cases: both partners purified
# [1] = target: B3; assay: AUC; sedimentation velocity, full-length proteins alone and as complex, 5 μM (both proteins); 10 mM Tris pH 8, 200 mM NaCl, 3 mM β-mercaptoethanol, 20 °C, 48000 rpm; c(s) model
# [2] = target: B1; assay: pull-down; Ni-NTA sepharose beads, one partner with N-terminal His6GB1 tag immobilised, both partners 1 μM in 200 μL 30 mM Tris pH 8, 200 mM NaCl, 10 mM imidazole, 1 mM TCEP; 30 min at 4 °C; SDS gels stained with Coomassie Blue
# [3] = target: T1, His6GB1-tagged PI4KB V42A mutant (human, UniProt Q9UBF8 1-816, V42A | residues 423–522 removed); assay: as above
# T1 construct: PI4KB, human, UniProtKB Q9UBF8 isoform 1, residues 423-522 removed, point mutant; source: E. coli BL21 Star, purified (Ni-NTA, SEC); not shown: His6, N-terminal, kept; GB1, N-terminal, kept
# [4] = target: T2, His6GB1-tagged PI4KB V47A mutant (human, UniProt Q9UBF8 1-816, V47A | residues 423–522 removed); assay: as above
# T2 construct: PI4KB, human, UniProtKB Q9UBF8 isoform 1, residues 423-522 removed, point mutant; source: E. coli BL21 Star, purified (Ni-NTA, SEC); not shown: His6, N-terminal, kept; GB1, N-terminal, kept
# [5] = target: B1; assay: SPR; legend: PI4KB binding to immobilized ACBD3; methods: PI4KB chip-immobilized, ACBD3 injected in a series of concentrations for 3 min, dissociation 5 min; single-exponential model
# [6] = target: B3; assay: pull-down; Ni-NTA sepharose beads, one partner with N-terminal His6GB1 tag immobilised, both partners 1 μM in 200 μL 30 mM Tris pH 8, 200 mM NaCl, 10 mM imidazole, 1 mM TCEP; 30 min at 4 °C; SDS gels stained with Coomassie Blue
# [7] = target: T3, N-terminal His6GB1-tagged PI4KB (residues 423-522 removed) (human, UniProt Q9UBF8 1-816, residues 423–522 removed); assay: as above
# T3 construct: Phosphatidylinositol 4-kinase beta (PI4KB), human, UniProtKB entry Q9UBF8 isoform 1, with the intrinsically disordered region 423-522 removed; also called PI4K IIIβ; His6-tagged wild type PI4KB; source: E. coli BL21 Star, purified (Ni-NTA, SEC); not shown: His6, N-terminal, kept; GB1, N-terminal, kept
binder,measurement,setting,value
B1,stoichiometry N,[1],1
B2,binding result,[2],binds
B3,binding result,[3],binds
same,binding result,[4],binds
same,Kd,[5],320 nM
B4,binding result,[6],binds
B5,binding result,[7],binds

# From paper PMC4806292, “Structural insights and in vitro reconstitution of membrane targeting and activation of human PI4KB by the ACBD3 protein” (Scientific Reports, 2016)
